Results: patent US20080221057A1, “SECRETED PROTEIN CCDC80 REGULATES ADIPOCYTE DIFFERENTIATION” (Wyeth, priority 2007, published 2008)

Experiments:
Type in all cases: cell-based, mouse
Ccdc80 mRNA [1] = test: Ccdc80 mRNA expression in growth-arrested 3T3-L1 cells treated with adipogenic inducers, real-time PCR; conditions: growth-arrested 3T3-L1 cells treated with one or more adipogenic inducers for 96 hr
Procedure: RNA from undifferentiated and differentiated 3T3-L1 adipocytes, tissues from normal, 8- to 12-week-old male C57BL/6J mice, as well as tissues from 10-week-old male ob/ob and age-matched wild-type control mice, was obtained as described (Lake et al., J. Lipid Res 46:2477-2487, 2005). For thiazolidinedione (TZD) treatment, 10-week-old male ob/ob mice were gavaged once per day with 15 mg/kg rosiglitazone or vehicle for 21 days. Primary adipocytes and stromal vascular fraction were prepared from the epididymal adipose tissue of 8- to 12-week-old male C57BL/6J mice as described (Lake et al., J. Lipid Res 46:2477-2487, 2005). Total RNA was extracted using Trizol (Invitrogen) and purified using the RNeasy kit (Qiagen). RNA from human tissues was obtained from Clontech (Mountain View, Calif.). […] Biol. Chem. 281:27167-27177, 2006). Gene expression was also measured by real-time PCR. (n=3-6 mice per group)*p<0.05. Taqman real-time quantitative PCR was performed on a 7900HT fast real-time PCR system (Applied Biosystems) according to the manufacturer's instructions using 18S as an endogenous control as described before (Lake et al., J. Lipid Res 46:2477-2487, 2005). Pre-designed gene-specific primers and probes were obtained from Applied Biosystems. […] Neutral lipid accumulation in formalin-fixed adipocytes was determined by oil red O staining according to methods well known in the art.

3T3-L1 cells [2] = test: 3T3-L1 adipocyte differentiation, lipid accumulation by oil red O staining; conditions: data not shown
Procedure: 3T3-L1 cells were maintained in DMEM containing 20% calf serum in an atmosphere of 10% CO2 at 37° C. Two days post-confluence, cells were induced to differentiate into adipocyte using DMEM containing 10% FBS supplemented with 500 μM 3-isobutyl-1-methylxanthine, 1 μM dexamethasone and 1.7 μM insulin for 4 days, followed by DMEM containing 10% FBS and 0.85 μM insulin for 2 days, then DMEM containing only 10% FBS for an additional 2-4 days. Neutral lipid accumulation in formalin-fixed adipocytes was determined by oil red O staining according to methods well known in the art.

[3] = test system: Wnt/β-catenin signaling pathway; test: Wnt/β-catenin pathway gene expression in 3T3-L1 cells, real-time PCR low-density array
Procedure: (§1) RNA from undifferentiated and differentiated 3T3-L1 adipocytes, tissues from normal, 8- to 12-week-old male C57BL/6J mice, as well as tissues from 10-week-old male ob/ob and age-matched wild-type control mice, was obtained as described (Lake et al., J. Lipid Res 46:2477-2487, 2005). For thiazolidinedione (TZD) treatment, 10-week-old male ob/ob mice were gavaged once per day with 15 mg/kg rosiglitazone or vehicle for 21 days. Primary adipocytes and stromal vascular fraction were prepared from the epididymal adipose tissue of 8- to 12-week-old male C57BL/6J mice as described (Lake et al., J. Lipid Res 46:2477-2487, 2005). Total RNA was extracted using Trizol (Invitrogen) and purified using the RNeasy kit (Qiagen). RNA from human tissues was obtained from Clontech (Mountain View, Calif.). Gene expression profiling was performed using the Mouse Genome 430 2.0 array (Affymetrix) as previously described (Berasi et al., J. Biol. Chem. 281:27167-27177, 2006). Gene expression was also measured by real-time PCR. (n=3-6 mice per group)*p<0.05. Taqman real-time quantitative PCR was performed on a 7900HT fast real-time PCR system (Applied Biosystems) according to the manufacturer's instructions using 18S as an endogenous control as described before (Lake et al., J. Lipid Res 46:2477-2487, 2005). Pre-designed gene-specific primers and probes were obtained from Applied Biosystems. Data shown in FIGS. 1A-E and 1G, FIG. 3 B-D, FIG. 4D, FIG. 5A, C, D, FIG. 6, and FIG. 7A are obtained by real-time PCR; data shown in FIG. 1F, and FIG. 4C are derived from microarray analysis.

3T3-L1 cells [4] = test: Proliferation of 3T3-L1 pre-adipocytes; conditions: stable retroviral expression in 3T3-L1 cells
3T3-L1 cells [5] = test: mRNA expression of genes involved in adipogenesis, metabolism and signaling in 3T3-L1 cells (microarray, real-time PCR)
Procedure: as §1

Akt and ERK = test: Insulin stimulation and immunoblot analysis of Akt and ERK phosphorylation in 3T3-L1 cells; conditions: Ccdc80-KD cells
Procedure: Differentiated 3T3-L1 adipocytes were deprived of serum for 2 hr before stimulation with 10 nM insulin for 10 min. Cells were rinsed twice in ice-cold PBS and lysed as previously described (Tremblay and Marette, J. Biol. Chem. 276:38052-38060, 2001). Equal amounts of proteins were separated on 4-12% SDS-PAGE and transferred to nitrocellulose membranes. Phosphorylation of Akt (Ser473) and ERK-½ (Thr202/Tyr204) was determined using phospho-specific antibodies (Cell Signaling Technologies).

[6] = test system: TCF-mediated transcriptional activity; test: TOPFLASH luciferase reporter assay in 3T3-L1 cells; conditions: vs non-silencing shRNA
Procedure: HepG2 cells were seeded at a density of 8×10^4 cells per well in 24-well plates and grown for 24 hr in antibiotic-free DMEM containing 10% FBS. Cells were transfected with 0.8 μg TOPFLASH and 0.2 μg β-galactosidase reporter plasmids using Lipofectamine 2000 (Invitrogen), rinsed with PBS 4 hr later and infected with adenovirus encoding either GFP or Ccdc80 in opti-MEM. Serum (final concentration: 10% FBS) was added to each well 2 hr after infection and cells were collected 24 hr later. 3T3-L1 cells were seeded at a density of 2.5×10^5 cells per well in 24-well plates. Cells were transfected with 1 μg TOPFLASH and 0.2 μg β-galactosidase reporter plasmids using Fugene 6 and grown in DMEM containing 20% calf serum until 2 days post-confluency. Cells were collected prior to and 24, 48 and 96 hr after induction of differentiation with insulin, 3-isobutyl-1-methylxanthine and dexamethasone as described above. Luciferase and β-galactosidase activities were measured according to manufacturer's instructions (Promega). Luciferase value was normalized to β-galactosidase activity.

Ccdc80 mRNA [7] = test: Silencing of Ccdc80 by RNA interference in stable 3T3-L1 cell lines, Ccdc80 mRNA by real-time PCR; conditions: stable 3T3-L1 line, vs non-silencing shRNA
Procedure: RNA from undifferentiated and differentiated 3T3-L1 adipocytes, tissues from normal, 8- to 12-week-old male C57BL/6J mice, as well as tissues from 10-week-old male ob/ob and age-matched wild-type control mice, was obtained as described (Lake et al., J. Lipid Res 46:2477-2487, 2005). For thiazolidinedione (TZD) treatment, 10-week-old male ob/ob mice were gavaged once per day with 15 mg/kg rosiglitazone or vehicle for 21 days. Primary adipocytes and stromal vascular fraction were prepared from the epididymal adipose tissue of 8- to 12-week-old male C57BL/6J mice as described (Lake et al., J. Lipid Res 46:2477-2487, 2005). Total RNA was extracted using Trizol (Invitrogen) and purified using the RNeasy kit (Qiagen). RNA from human tissues was obtained from Clontech (Mountain View, Calif.). Gene expression profiling was performed using the Mouse Genome 430 2.0 array (Affymetrix) as previously described (Berasi et al., J. Biol. Chem. 281:27167-27177, 2006). Gene expression was also measured by real-time PCR. (n=3-6 mice per group)*p<0.05. Taqman real-time quantitative PCR was performed on a 7900HT fast real-time PCR system (Applied Biosystems) according to the manufacturer's instructions using 18S as an endogenous control as described before (Lake et al., J. Lipid Res 46:2477-2487, 2005). Pre-designed gene-specific primers and probes were obtained from Applied Biosystems. […]

Ccdc80 = test: Secretion of Ccdc80 from 3T3-L1 cells, western blot of conditioned medium; conditions: growth-arrested and terminally differentiated 3T3-L1, vs non-silencing shRNA
Procedure: The Ccdc80-FLAG containing expression vector (pSMED2-Ccdc80-FLAG), as well as a control vector (pSMED2) were transfected into HEK293 T cells. In particular, HEK293T were seeded at a density of 2×10^6 cells in 10-cm Petri dishes. Cells were transfected with pSmed2 or pSmed2-Ccdc80-FLAG using Fugene6 (Roche). Two days after transfection, cells were placed in serum-free DMEM and medium was collected 24 hr later. Endogenous secretion of Ccdc80 was evaluated in 3T3-L1 preadipocytes and fully differentiated adipocytes. 3T3-L1 cells were rinsed twice with PBS and incubated in serum-free DMEM for 48 hrs before medium was collected. Conditioned media were analyzed by 4-10% SDS-PAGE followed by silver staining or immunological detection with anti-FLAG M2 (293T) or anti-Ccdc80 (3T3-L1) antibodies.

[8] = Ccdc80-KD cells, end of differentiation, microarray

CC(C)Cn1c(=O)n(C)c(=O)c2[nH]cnc21 [IBMX, 3-isobutyl-1-methylxanthine]
Ccdc80 mRNA levels (Ccdc80 mRNA [1]): significantly reduce

N#CC(=C(/N)Sc1ccccc1N)/C(C#N)=C(\N)Sc1ccccc1N [U0126]
reversal of inhibited adipogenesis phenotype (3T3-L1 cells [2]; Ccdc80-KD cells, 1 or 10 μM): no reversal of phenotype
adipogenesis of control cells (3T3-L1 cells [2]; control cells, treatment during clonal expansion): inhibited adipogenesis

insulin
Ccdc80 mRNA levels (Ccdc80 mRNA [1]): significantly reduce

B1: Ccdc80 shRNA: short hairpin RNA against mouse Ccdc80 (position 2015-2037), encoded by SEQ ID NO: 3, expressed from a retroviral vector (nucleic acid)
chain: UGCUGUUGACAGUGAGCGCCCUGAGAAGGAGAAGAAGAAAUAGUGAAGCCACAGAUGUAUUUCUUCUUCUCCUUCUCAGGUUGCCUACUGCCUCGGA
repression of Cyclin D1 mRNA levels by adipogenic inducers during clonal expansion ([3]; 3T3-L1, change from growth arrest to clonal expansion, adenovirus at MOI 2000): severely compromised
expression of β-catenin signaling mediators (APC, β-catenin, Dvl-1, Frizzled-1, GSK3 A, LRP5/6 and Wnt10b) ([3]; Ccdc80-KD cells during differentiation): Only very little changes
TCF4 mRNA levels ([3]; Ccdc80-KD cells, after terminal differentiation): increased
expression of LEF1 ([3]; Ccdc80-KD cells, following clonal expansion): down-regulation
ability to differentiate into adipocytes (oil red O staining) (3T3-L1 cells [2]; knockdown cell line, end of the differentiation protocol): reduced oil red O staining
proliferation of pre-adipocyte (3T3-L1 cells [4]): increased
expression of GLUT1 (3T3-L1 cells [5]; Ccdc80-KD cells): unchanged
expression of GLUT4 (3T3-L1 cells [5]; Ccdc80-KD cells): decreased
expression of C/EBPα and PPARγ (3T3-L1 cells [5]; [8]): significantly decreased
expression of KLF5 and TCF4 (3T3-L1 cells [5]; [8]): significantly increased
expression of genes involved in lipid metabolism (aP2, CD36, DGAT1/2, LIPIN1, LPL and SCD1/2) (3T3-L1 cells [5]; [8]): impaired
magnitude of induction of aP2, C/EBPα and PPARγ during clonal expansion (3T3-L1 cells [5]; Ccdc80-KD cells, real-time PCR, maintained throughout terminal differentiation): severely attenuated
expression of common mediators of the insulin signaling pathway (3T3-L1 cells [5]; control vs knockdown cells): no obvious difference
insulin-stimulated phosphorylation of Akt and ERK1/2 (Akt and ERK; 10 nM insulin for 10 min): unaffected
basal phosphorylation of ERK1/2 (Akt and ERK; no insulin): elevated
TOPFLASH activity ([6]; growth arrest (T=0)): similar
TOPFLASH activity ([6]; throughout clonal expansion (24, 48 and 96 hr after induction)): significantly more elevated
reduction of the expression of Ccdc80 (Ccdc80 mRNA [7]): 40-50%
secretion of Ccdc80 protein (Ccdc80): markedly blunted the secretion
